Measured values as given in patent publication US20210079343, “ENDOTHELIAL CELL FACTORS AND METHODS THEREOF” (THE CHILDREN'S MEDICAL CENTER CORPORATION, published 2021).

T1: NR2F2 (COUP-TFII) (Mus musculus, UniProt P43135 P43135:1-414)
T1 sequence: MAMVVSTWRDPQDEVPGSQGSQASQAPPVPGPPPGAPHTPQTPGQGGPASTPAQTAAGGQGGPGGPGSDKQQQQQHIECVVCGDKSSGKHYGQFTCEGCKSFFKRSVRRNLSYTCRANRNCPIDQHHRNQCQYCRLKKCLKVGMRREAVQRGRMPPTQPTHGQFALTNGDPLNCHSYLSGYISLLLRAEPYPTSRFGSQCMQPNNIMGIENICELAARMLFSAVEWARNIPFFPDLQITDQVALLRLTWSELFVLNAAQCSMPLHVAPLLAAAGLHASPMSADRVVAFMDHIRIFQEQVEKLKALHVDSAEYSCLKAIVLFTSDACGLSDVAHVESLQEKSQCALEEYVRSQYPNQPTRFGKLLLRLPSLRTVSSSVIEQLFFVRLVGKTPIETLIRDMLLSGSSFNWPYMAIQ

B1: mrc1a site 1 wild-type (dsDNA)
DNA 1: TTTATGAAGCTTGTACCTTTCATTTCCTTTTTG
DNA 2: CAAAAAGGAAATGAAAGGTACAAGCTTCATAAA
B2: sele wild-type (dsDNA)
DNA 1: GTAATGCCCCCTGTGACCCATATTGTCTCGCTCTTTCCTTTATA
DNA 2: TATAAAGGAAAGAGCGAGACAATATGGGTCACAGGGGGCATTAC
B3: mrc1a site 2 wild-type (dsDNA)
DNA 1: TTCATTTCCTTTTTGCTGAGCTTTATTTTC
DNA 2: GAAAATAAAGCTCAGCAAAAAGGAAATGAA
B4: sele mutation (dsDNA)
DNA 1: GTAATGCCCCCTGATTAACATATTGTCTCGCTCTTTCCTTTATA
DNA 2: TATAAAGGAAAGAGCGAGACAATATGTTAATCAGGGGGCATTAC
B5: mrc1a site 2 mutation (dsDNA)
DNA 1: TTCATTTCCTTTTTGCATTAATTTATTTTC
DNA 2: GAAAATAAATTAATGCAAAAAGGAAATGAA
B6: mrc1a site 1 mutation (dsDNA)
DNA 1: TTTAATTAGCAGATTTAATTTCATTTCCTTTTTG
DNA 2: CAAAAAGGAAATGAAATTAAATCTGCTAATTAAA

target: T1, NR2F2 (COUP-TFII); assay: EMSA; 4 C, 20 mM Tris pH 8.0, 10 mM KCl, 20% glycerol; super-shifted by anti-NR2F2; outcompeted by unlabeled wild-type probe; conditions: tags: GST (pGEX2TK, E. coli BL21)
Source text: (§1) In each case, disruption of the Ets, SoxF or NHR motifs led to a significant reduction or complete loss of GFP expression in CHT ECs (see e.g., FIG. 3F). In control constructs where mutations were targeted to intervening sequences between the Ets, SoxF and NHR motifs, GFP expression was unperturbed (see e.g., FIG. 3F). Studies of arterial-venous specification in zebrafish have shown that the NHR Nr2f2, also known as COUP-TFII, promotes venous endothelial cell fate (see e.g., Aranguren et al. Transcription factor COUP-TFII is indispensable for venous and lymphatic development in zebrafish and Xenopus laevis. Biochemical and biophysical research communications 410, 121-126, 2011). To test whether Nr2f2 could directly bind the enhancer sequences, an in vitro gel electrophoretic mobility shift assay was performed. Incubation of murine NR2F2-GST protein with labeled probe from either the 125 bp mrc1a or 158 bp sele zebrafish enhancers led to DNA:protein complexes that were super-shifted upon addition of an NR2F2 antibody and could be outcompeted by an unlabeled competitor probe (see e.g., FIG. 10A-FIG. 10E).
(§2) The Nr2f2 fragment was cloned into the pGEX2TK™ vector to generate GST-tagged Nr2f2 and fidelity was verified by sequencing. The pGEX2TK-Nr2f2 protein plasmid was transformed into E. coli BL21 competent cells. Proteins were expressed and purified, and purified proteins were quantified against BSA. EMSAs were performed. Probes were generated by annealing 100 pmol of sense and antisense oligonucleotides, and 1-2 pmol of probe was used in each reaction. Gel shift reactions were conducted at 4° C. in 20% glycerol, 20 mM Tris (pH 8.0), 10 mM KCl, 1 mM DTT, 12.5 ng poly dI/C, 6.25 pmol of random, single-stranded oligonucleotides, BSA and the probe in the amount specified above. Samples involving the Nr2f2 protein were loaded on a 6% gel to resolve protein-DNA complexes. In reactions with cold competitors, 20x unlabeled probes were included in the reactions. Anti-NR2F2 antibody (R&D Biosystems™; cat # PP-H7147-00) was at the same amount of the Nr2f2 protein to obtain super-shifts.

Q: Does B1 bind?
A: binds

Q: Does B2 bind?
A: binds

Q: Does B3 bind?
A: binds

target: T1, NR2F2 (COUP-TFII); assay: competition; 20x unlabeled mutant unable to outcompete wild-type probe in EMSA; conditions: tags: GST (pGEX2TK, E. coli BL21)
Source text: as §1, §2

Q: Does B4 bind?
A: no binding

Q: Does B5 bind?
A: no binding

Q: Does B6 bind?
A: no binding
